Consider two substances from US20080279850A1.

The target of assay [1] is T1, CD37 (human) (UniProt P11049).
T1 sequence: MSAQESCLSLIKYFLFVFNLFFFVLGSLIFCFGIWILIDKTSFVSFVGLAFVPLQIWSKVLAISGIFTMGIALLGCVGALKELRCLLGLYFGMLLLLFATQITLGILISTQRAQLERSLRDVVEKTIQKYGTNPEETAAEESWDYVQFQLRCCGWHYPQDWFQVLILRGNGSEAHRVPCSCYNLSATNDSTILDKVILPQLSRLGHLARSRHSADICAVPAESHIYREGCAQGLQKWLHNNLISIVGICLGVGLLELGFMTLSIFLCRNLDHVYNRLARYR

Assay [2] deals with T1, CD37 (human). The source holds these as a separate data set.

“TRU-016 [G28-1 scFv VH11S (SSC-P)H WCH2 WCH3] (Fc fusion)”: the Annexin V Positive, Bjab cells, 20 µg/mL SMIP with goat anti-human IgG crosslinking (Annexin V Positive) with CD37 (human) [1] was 30.6.
On to “TRU-016, protein A purified (unfractionated) (Fc fusion)”, for which the Annexin V-PI staining of Ramos cells after 24 hours with CD37 (human) [2] came to 32.8%.
